# Test results reported in patent publication US20260226168A1 (published 2026).
# Positions count from the first letter of the chain named.
# T1: human GPRC5D protein (UniProt Q9NZD1 1-345)
# T1 chain: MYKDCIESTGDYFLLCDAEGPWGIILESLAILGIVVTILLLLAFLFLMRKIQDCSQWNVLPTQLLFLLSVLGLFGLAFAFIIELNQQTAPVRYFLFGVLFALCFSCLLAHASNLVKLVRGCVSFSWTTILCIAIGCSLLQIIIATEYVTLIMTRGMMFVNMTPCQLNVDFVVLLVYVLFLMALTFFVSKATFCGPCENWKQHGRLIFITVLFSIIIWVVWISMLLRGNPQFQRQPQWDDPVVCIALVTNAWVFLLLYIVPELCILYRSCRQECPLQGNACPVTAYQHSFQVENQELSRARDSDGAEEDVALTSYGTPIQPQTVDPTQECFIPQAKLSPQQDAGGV
# B1: Chi-169 (antibody, V domains shown)
# VH: EVKLVESGGGLVKPGASLKLSCAASGFTFSNYGMSWVRQTSDKRLEWVASISSGGGRIYYPDNVKGRFTISRENAKNTLYLQMSSLKSEDTALYYCTRHAMDNWGQGTSVIVSS
# VL: QIVLTQSPAIMSASPGEKVTMTCSASSSVSNMYWYQQKSGTSPKRWIYDTSKLASGVPARFSGSGSGTSYSLTISSMEAEDASTYYCQQWSSNPLTFGAGTTLELKR
# B2: Chi-128 (antibody, V domains shown)
# VH: DVQLVESGGGLVQPGGSRKVSCAASGFTFSSFGMHWVRQAPEKGLEWVAYISRGSSTIYYADTVKGRFTISRDNPKNTLFLQMTSLRSEDTAMYYCARSGYGSSSYYFDYWGQGTTLTVSS
# VL: ENVLTQSPAIMSASPREKVTMTCRASSSIRSSYLHWYQQKSGASPKLWIYSTSNLASGVPARFSGSGSGTSYSLTISSVEAEDAATYYCQQFSGYPLTFGGGTKLEIKR
# B3: Chi-105 (antibody, V domains shown)
# VH: EVQLQQSGPELVKPGASVKMSCKASGYTFTDYYMNWVKQSHGKSLEWIGYIYPNNGGTGYNQRFKGKATLTADKSSSTAYMELRSLTSEDSAVYYCARWGGTRLGYYAMDYWGQGTSVTVSS
# VL: DIVMTQSQKFMSTSVGDRVSVTCKASQNVGTNVVWYQQKPGQSPKLLIYWASTRHTGVPDRFTGSGSGTDFTLTISNVQSEDLADYFCQQYSRYPYTFGGGTKLEIKR
# B4: Chi-131 (antibody, V domains shown)
# VH: EVQLQQSGPELVKPGASVKMSCKASGYTFTNYVMHWVKQKPGQGLEWIGYFNPYNDGTNYNEKFKGKATLTSDKSSNTAYMELSSLTSEDSAVYYCARGGVRRYFDVWGAGTTVTVSS
# VL: DIQMTQSPSSLSASLGERVSLTCRASQDIGSNLNWLQLGPDGTIKRLIYATFSLDSGVPKRFSGSRSGSDYSLTISSLESEDFVDYYCQQYANFPPTFGGGTKLEIKR
# B5: Chi-89 (antibody, V domains shown)
# VH: EVQLVESGGDLVKPGGSLKLSCAASGFTFSSYGMSWVRQTPDKRLEWVATISSGGSYTYYPDSVKGRFTFSRDNAKNTLYLQMSSLKSEDTAMYYCVRQALRYHMDSWGQGTSVTVSS
# VL: B3 VL with V34A, L46A, W50S, T53Y, H55Y, T56S, Y86F, S92Y, R93S, Y96W
# Biological target: T1, human GPRC5D protein
# Experiment: FACS, cells with high expression of hGPRC5D
row,Binder,EC50 [nM]
1,B1,0.66
2,B2,0.76
3,B3,1.44
4,B4,0.66
5,B5,0.7
